Assays:
[1] = test system: McA-RH7777 cells stably expressing human apoB-100 and human apoC-III (A18-C3); assay type: cell-based; conditions: for effect on EPA-induced lipid degradation (CLD turnover): cells silenced, transfected or pre-treated, then EPA 0.4 mM, 6 h
Experimental: (§1) In certain non-limiting examples described herein, McA-RH7777 cells stably expressing human apoB-100 and human apoC-III (designated A18-C3) were used for the studies. […] In addition, these studies, particularly those concerning EPA- or DHA-triggered lysosomal motility and CLD degradation, were also performed using primary rat hepatocytes. Transfection of plasmids encoding proteins of interest, or transfection of siRNA specific for silencing target gene expression, was achieved using the FuGENE HP Extreme reagent (Roche). Representative gene silencing siRNA sequences, which are not meant to be limiting, are described in Table 1, and plasmids encoding proteins of interest are described in Table 2. The effectiveness of siRNA silencing was verified by Western-blotting of cellular content of the target proteins, and by intracellular localization assay using siRNA-Tracker (Mirus Bioscience). Twenty-four h after plasmid transfection, or 48 h after siRNA transfection, the cells were cultured in lipid-rich media containing fetal bovine serum (20%) and OA (0.4 mM). The lipid-laden cells were switched to fresh media supplemented with OA or EPA (0.4 mM). In live imaging experiments, LipidTOX Red (Life Technologies) and LysoTracker (Life Technologies) were added to media prior to EPA treatment, to visualize lipid droplets and lysosomes, respectively. For visualizing peroxisomes, Peroxisome-GFP (Invitrogen) was introduced to the cells 24 h prior to experiments. Quantification of cell lipid contents was achieved either by direct mass measurement (HPTLC) and counting the number of lipid droplets using Image J Lipid Droplet Counter Plug-In, or indirectly by Western blot analysis of cellular content of ADRP. Secretion of apoB and TG-rich lipoprotein was determined by Western blot analysis and metabolic labeling. Mitochondrial β-oxidation was measured using MitoSOX Red (Life Technologies) in situ. Autophagic flux was determined by using Cyto-ID assay (Enzo Life Science) and by monitoring GFP-LC3 clustering in situ. Interaction of Arl8b and subunits of the HOPS complex was determined in situ by the proximity ligation assay (Olink Biosience). Cytoplasmic pH was measured using the cytosolic pHrodo indicator reagent (Invitrogen). Live imaging of fluorescent-tagged proteins was performed 1 h post-EPA treatment. Cells were also collected at the time of EPA treatment for transmission EM and tomography, as well as immuno-EM. For movies, cells were imaged at 60 sec intervals every 5 min, for a total of 30 min.
The A18-C3 cells were cultured in DMEM (Invitrogen) supplemented with fetal bovine serum (20%), penicillin (50 U/mL), streptomycin (50 μg/mL, Invitrogen) and Geneticin/G418 (500 μg/mL, Gibco) at 37° C. in 5% CO2. Transfection was conducted when cells were 60-70% confluence. Appropriate plasmids were mixed with FuGENE HP extreme reagent (Roche Diagnostic), according to manufacturer's protocol, and incubated for 30 min. Twenty-four h after transfection, cells were switched to lipid-rich media containing OA (0.4 mM) for additional 16 h prior to imaging and biochemical analysis. In silencing experiments, appropriate siRNAs were transfected into cells using the X-treme GENE siRNA regent (Roche Diagnostic). Localization of siRNA in transfected cells in situ was carried out using the Cy5 Label IT-siRNA Tracker (Minis Bioscience #7213) according to manufacturer's protocol. Forty-eight h after transfection, cells were switched to lipid-rich media containing OA (0.4 mM) for additional 16 h prior to imaging and biochemical analysis.
Quantification of lipid droplets was carried out using confocal and differential interface contrast (DIC) microscopy. Lipid droplets were stained with LipidTOX Red (Invitrogen) before adding OA or EPA. All images were visualized using a 63× oil immersion objective lens. Z-series stacks were acquired with 0.2 μm steps. […]

[2] = test system: McA-RH7777 cells (A18-C3); assay: Live imaging of lysosomal motility and lysosome-CLD interaction (kiss-and-run); assay type: cell-based, rat; conditions: cells silenced, transfected or pre-treated (15 min) before EPA
Experimental: as §1
Cells were grown on 35-mm glass bottom dishes (Ibidi GmbH München, Germany) for 16 h in DMEM supplemented with FBS (20%) and OA (0.4 mM). Cells were imaged using a Zeiss 510 META laser scanning confocal microscope with a heated CO2-controlled stage (5% CO2 at 37° C.). Images were captured at a frame-rate of 30 frame/sec using a 63×. N.A.1.4 objective. Recommended laser lines and filter combinations were used for each dye. For visualization of lipid droplets, lysosomes, mitochondria, and mitochondrial β-oxidation, the respective reagents LipidTOX Red (Invitrogen), LysoTracker (Life Technology), MitoTracker (Life Technology), MitoSox Red (Invitrogen), and Peroxisome-GFP BacMam2.0 (Invitrogen) were introduced into the cells, according to manufacturers' recommendations, prior to EPA treatment.
Cells were cultured with lipid-rich media containing OA (0.4 mM) for 16 h. The lipid-laden cells were switched to fresh media containing EPA (0.4 mM) for 1 h, and the lysosomal movement towards lipid droplets was recorded by time-lapse microscopy. Fluorescent intensity of lysosomal signals at the periphery of selected individual lipid droplet was measured using Image J Live Intensity Profiler Plug-in^31-33 over a period of 40 sec. Quantification for each condition was carried out for 60 individual lipid droplets from three independent experiments. Constant threshold was applied to all of the images in each experiment.

| Molecule | effect on EPA-induced lipid degradation (CLD turnover) [1] | effect on EPA-triggered lysosomal motility / lysosomal interaction with CLD [2] | effect on lipid degradation when co-expressed with Arl8b^WT, Arl8b^Q75L or Arl8b^T34N ([1]; co-transfected cells, 6 h post-OA or -EPA) |
| --- | --- | --- | --- |
| COC(=O)Nc1nc2ccc(C(=O)c3cccs3)cc2[nH]1 [nocodazole, reference compound] | blocked EPA-induced lipid degradation | blocks EPA-induced lysosomal movement | – |
| Cl.N [NH4Cl, reference compound] | inhibited | – | – |
| CCC/C=C/C/C=C/C=C/C=N/NN=O [Triacsin C, reference compound] | inhibited EPA-induced lipid degradation | blocked | – |
| FYCO1: Rab7 effector, anterograde motor adaptor, overexpressed GFP-tagged from plasmid (protein, UniProt Q9BQS8 2-1478, looked up, GFP tag) FYVE and coiled-coil …: ASTNAESQLQRIIRDLQDAVTELSKEFQEAGEPITDDSTSLHKFSYKLEYLLQFDQKEKATLLGNKKDYWDYFCACLAKVKGANDGIRFVKSISELRTSLGKGRAFIRYSLVHQRLADTLQQCFMNTKVTSDWYYARSPFLQPKLSSDIVGQLYELTEVQFDLASRGFDLDAAWPTFARRTLTTGSSAYLWKPPSRSSSMSSLVSSYLQTQEMVSNFDLNSPLNNEALEGFDEMRLELDQLEVREKQLRERMQQLDRENQELRAAVSQQGEQLQTERERGRTAAEDNVRLTCLVAELQKQWEVTQATQNTVKELQTCLQGLELGAAEKEEDYHTALRRLESMLQPLAQELEATRDSLDKKNQHLASFPGWLAMAQQKADTASDTKGRQEPIPSDAAQEMQELGEKLQALERERTKVEEVNRQQSAQLEQLVKELQLKEDARASLERLVKEMAPLQEELSGKGQEADQLWRRLQELLAHTSSWEEELAELRREKKQQQEEKELLEQEVRSLTRQLQFLETQLAQVSQHVSDLEEQKKQLIQDKDHLSQQVGMLERLAGPPGPELPVAGEKNEALVPVNSSLQEAWGKPEEEQRGLQEAQLDDTKVQEGSQEEELRQANRELEKELQNVVGRNQLLEGKLQALQADYQALQQRESAIQGSLASLEAEQASIRHLGDQMEASLLAVRKAKEAMKAQMAEKEAILQSKEGECQQLREEVEQCQQLAEARHRELRALESQCQQQTQLIEVLTAEKGQQGVGPPTDNEARELAAQLALSQAQLEVHQGEVQRLQAQVVDLQAKMRAALDDQDKVQSQLSMAEAVLREHKTLVQQLKEQNEALNRAHVQELLQCSEREGALQEERADEAQQREEELRALQEELSQAKCSSEEAQLEHAELQEQLHRANTDTAELGIQVCALTVEKERVEEALACAVQELQDAKEAASREREGLERQVAGLQQEKESLQEKLKAAKAAAGSLPGLQAQLAQAEQRAQSLQEAAHQELNTLKFQLSAEIMDYQSRLKNAGEECKSLRGQLEEQGRQLQAAEEAVEKLKATQADMGEKLSCTSNHLAECQAAMLRKDKEGAALREDLERTQKELEKATTKIQEYYNKLCQEVTNRERNDQKMLADLDDLNRTKKYLEERLIELLRDKDALWQKSDALEFQQKLSAEERWLGDTEANHCLDCKREFSWMVRRHHCRICGRIFCYYCCNNYVLSKHGGKKERCCRACFQKLSEGPGSPDSSGSGTSQGEPSPALSPASPGPQATGGQGANTDYRPPDDAVFDIITDEELCQIQESGSSLPETPTETDSLDPNAAEQDTTSTSLTPEDTEDMPVGQDSEICLLKSGELMIKVPLTVDEIASFGEGSRELFVRSSTYSLIPITVAEAGLTISWVFSSDPKSISFSVVFQEAEDTPLDQCKVLIPTTRCNSHKENIQGQLKVRTPGIYMLIFDNTFSRFVSKKVFYHLTVDRPVIYDGSDFL | adversely blocked EPA-induced lipid degradation | blocks EPA-triggered lysosomal interaction with LDs | – |
| RILP: Rab7 effector, retrograde motor adaptor, overexpressed GFP-tagged from plasmid (protein, UniProt Q96NA2 1-401, looked up, GFP tag) Rab-interacting lysosomal …: MEPRRAAPGVPGWGSREAAGSASAAELVYHLAGALGTELQDLARRFGPEAAAGLVPLVVRALELLEQAAVGPAPDSLQVSAQPAEQELRRLREENERLRRELRAGPQEERALLRQLKEVTDRQRDELRAHNRDLRQRGQETEALQEQLQRLLLVNAELRHKLAAMQTQLRAAQDRERERQQPGEAATPQAKERARGQAGRPGHQHGQEPEWATAGAGAPGNPEDPAEAAQQLGRPSEAGQCRFSREEFEQILQERNELKAKVFLLKEELAYFQRELLTDHRVPGLLLEAMKVAVRKQRKKIKAKMLGTPEEAESSEDEAGPWILLSDDKGDHPPPPESKIQSFFGLWYRGKAESSEDETSSPAPSKLGGEEEAQPQSPAPDPPCSALHEHLCLGASAAPEA | adversely blocked EPA-induced lipid degradation | blocks EPA-triggered lysosomal interaction with LDs | – |
| Vps41: HOPS subunit overexpressed from plasmid (GFP-tagged) (protein) MAEAEEQETESLEESTDESEEESEEEPKLKYERLSNGVTEILQKDAASCMTVHDKFLALGTHYGKVYLLDVQGNITQKFDVSPVKINQISLDESGEHMGVCSEDGKLQVFGLYSGEEFHETFDCPIKIVAVHPQFVRSSCKQFVTGGKKLLLFERTWMNRWKSSVLHEGEGNIRSVKWRGHLIAWANNMGVKIFDITSKQRITNVPRDDISLRPDMYPCSLCWKDAVTLIIGWGTSIKICSVKERHASEMRDLPSRYVEIVSQFETEFYISGLAPLCDQLVVLSYVKEVSEKTEREYCARPRLDIIQPLPETCEEISSDALTVRGFQENECRDYHLEYSEGESLFYVVSPRDVVVAKERDQDDHIDWLLEKKKYEEALMAAEISHRNIKRHKILEIGLAYVNHLVERGEYDMAARKCQKILGKNASLWEYEVYKFKEIGQLKAISPYLPRGDPVLKPLIYEMILHEFLESDYEGFATLIREWPGDLYNNSVIVQAVRDHLKKDSQNKTLLKTLAELYTYDKNYGNALEIYLTLRHKDVFQLIHKHNLFSSIKDKIVLLMDFDSEKAVDMLLDNEDKISIKKVVEELEDRPELQHVYLHKLFKRDHHKGQRYHEKQISLYAEYDRPNLLPFLRDSTHCPLEKALEICQQRNFVEETVYLLSRMGNSRSALKMIMEELHDVDKAIEFAKEQDDGELWEDLILYSIDKPPFITGLLNNIGTHVDPILLIHRIKEGMEIPNLRDSLVKILQDYNLQILLREGCKKILVADSLSLLKKMHRTQMKGVLVDEENICESCLSPILPTDAAKPFSVVVFHCRHMFHKECLPMPSLNAPAQYCNICSAKNRGPGSAILEMKK | block lipid degradation | enhanced lysosomal-CLD interaction | invariably blocks lipid degradation |

From US11298402B2, “Lysosomal degradation of lipids and proteins and method of use thereof” (University of Ottawa, priority 2015, dated 2022)
